This data set concerns the molecule itself. Nature of the data set: cryo-EM structure; LRRC8A_(BRIL):D complexes co-expressed in Sf9, purified in 20 mM HEPES, 150 mM KCl, 1 mM EDTA, 0.02% GDN, pH 7.4; α-BRIL Fab BAG2 and α-Fab Nb added as fiducials; two conformations resolved by 3D variability analysis, C1 symmetry.

B1: Mus musculus LRRC8D (natural protein, UniProt Q8BGR2 1-859, looked up)
chain: MFTLAEVASLNDIQPTYRILKPWWDVFMDYLAVVMLMVAIFAGTMQLTKDQVVCLPVLPSPANSKAHTPPGNADITTEVPRMETATHQDQNGQTTTNDVAFGTSAVTPDIPLQATHPHAESTLPNQEAKKEKRDPTGRKTNLDFQQYVFINQMCYHLALPWYSKYFPYLALIHTIILMVSSNFWFKYPKTCSKVEHFVSILGKCFESPWTTKALSETACEDSEENKQRITGAQTLPKHVSTSSDEGSPSASTPMINKTGFKFSAEKPVIEVPSMTILDKKDGEQAKALFEKVRKFRAHVEDSDLIYKLYVVQTLIKTAKFIFILCYTANFVNAISFEHVCKPKVEHLTGYEVFECTHNMAYMLKKLLISYISIICVYGFICLYTLFWLFRIPLKEYSFEKVREESSFSDIPDVKNDFAFLLHMVDQYDQLYSKRFGVFLSEVSENKLREISLNHEWTFEKLRQHVSRNAQDKQELHLFMLSGVPDAVFDLTDLDVLKLELIPEAKIPAKISQMTNLQELHLCHCPAKVEQTAFSFLRDHLRCLHVKFTDVAEIPAWVYLLKNLRELYLIGNLNSENNKMIGLESLRELRHLKILHVKSNLTKVPSNITDVAPHLTKLVIHNDGTKLLVLNSLKKMMNVAELELQNCELERIPHAIFSLSNLQELDLKSNNIRTIEEIISFQHLKRLTCLKLWHNKIVAIPPSITHVKNLESLYFSNNKLESLPTAVFSLQKLRCLDVSYNNISTIPIEIGLLQNLQHLHITGNKVDILPKQLFKCVKLRTLNLGQNCIASLPEKISQLTQLTQLELKGNCLDRLPAQLGQCRMLKKSGLVVEDQLFDTLPLEVKEALNQDVNVPFANGI
notes: the tag was cut off with TEV protease during purification, so a short C-terminal remnant of the linker and the cleavage site is left; Two copies stand in the hexameric channel; also called mmLRRC8D; LRRC8D subunit; source: Sf9 cells, co-expressed with LRRC8A_(BRIL) from one baculovirus; purified in GDN (α-mCherry nanobody resin, α-GFP nanobody resin, Superose 6 Increase); not shown: mCherry, …
B1: the binding result was “binds”.

For the origin of these results see publication doi:10.1101/2024.11.24.625074, “Assembly and lipid-gating of LRRC8A:D volume-regulated anion channels” (bioRxiv, 2024).
